Measured values taken from PMC11767649.

Experiments:
[1] = target: T1, recombinant human RKIP (rhRKIP) wild type, histidine-tagged (human), P30086; assay: LC Q-TOF mass spectrometry; purified rhRKIP WT and mutant proteins in buffer at pH 7.4; peaks around 22 kDa (monomer) and 44 kDa (dimer); settings: remark: other sources report otherwise
[2] = target: T1, recombinant human RKIP (rhRKIP) wild …; assay: non-reducing SDS-PAGE; purified rhRKIP in sample loading buffer without β-mercaptoethanol or boiling; Coomassie Brilliant Blue staining or anti-His immunoblot; settings: remark: other sources report otherwise

stoichiometry N [1]: 2
stoichiometry N [2]: 2
B1: recombinant human RKIP (rhRKIP) wild type, histidine-tagged, P30086 1-187 (natural protein)
chain: MPVDLSKWSGPLSLQEVDEQPQHPLHVTYAGAAVDELGKVLTPTQVKNRPTSISWDGLDSGKLYTLVLTDPDAPSRKDPKYREWHHFLVVNMKGNDISSGTVLSDYVGSGPPKGTGLHRYVWLVYEQDRPLKCDEPILSNRSGDHRGKFKVASFRKKYELRAPVAGTCYQAEWDDYVPKLYEQLSGK
